Measured values published in patent US11584938B2, “Plant EPSPS mutant containing L195P and S247G mutations and encoding gene and use thereof” (GEVOTO LLC, priority 2017, dated 2023).
Where a chain is given by its changes, count along the chain named.

System: transgenic rice plants
Experiment: glyphosate resistance of the EPSPS mutant in transgenic rice plants sprayed with Roundup 41% ammonium glyphosate
Assay type: in vivo, rice (Nipponbare)
Outline: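 EPSPS mutant genes were cloned into pGVP1 and introduced into Nipponbare rice embryo-derived calluses via Agrobacterium EHA105 (OD 0.2, 10 min infection, 2–3 days co-culture at 25 °C in the dark). Calluses went through recovery, two 14-day screening rounds at 30 °C, two differentiation rounds and rooting to regenerate transgenic plants.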

[1] = 1× dosage 1060 g/hectare glyphosate sprayed, recorded on 10th day
[2] = 2× dosage 2120 g/hectare sprayed to plants surviving 1×, recorded 10 days later
[3] = 5× dosage 5300 g/hectare sprayed to plants surviving 2×, recorded 10 days later
[4] = 20× dosage 21200 g/hectare sprayed to plants surviving 5×, recorded 10 days later

B1: R1: rice EPSPS mutant, SEQ ID NO: 30, mutation L214(195)P (protein)
chain: MASNAAAAAAKAEEIVLQPIREISGAVQLPGSKSLSNRILLLSALSEGTTVVDNLLNSEDVHYMLEALKALGLSVEADKVAKRAVVVGCGGKFPVEKDAKEEVQLFLGNAGTAMRPLTAAVTAAGGNATYVLDGVPRMRERPIGDLVVGLKQLGADVDCFLGTECPPVRVKGIGGLPGGKVKLSGSISSQYLSALLMAAPLALGDVEIEIIDKPISIPYVEMTLRLMERFGVKAEHSDSWDRFYIKGGQKYKSPGNAYVEGDASSASYFLAGAAITGGTVTVQGCGTTSLQGDVKFAEVLEMMGAKVTWTDTSVTVTGPPREPYGKKHLKAVDVNMNKMPDVAMTLAVVALFADGPTAIRDVASWRVKETERMVAIRTELTKLGASVEEGPDYCIITPPEKLNITAIDTYDDHRMAMAFSLAACADVPVTIRDPGCTRKTFPNYFDVLSTFVRN
%++&+++ (percentage of plant having medium and high glyphosate resistance to the total number of plants observed) [1]: 63.2% | number of plants denoted by + (low glyphosate resistance) [1]: 1 | number of plants denoted by ++ (medium glyphosate resistance) [1]: 1 | number of plants denoted by +++ (high glyphosate resistance) [1]: 11 | number of plants denoted by − (no glyphosate resistance) [1]: 6 | glyphosate resistance / survival of the rice transformed by the EPSPS, in words (1× glyphosate dosage): obviously superior to that of the rice seedlings transformed by R0 | %++&+++ (percentage of plant having medium and high glyphosate resistance to the total number of plants observed) [2]: 55.2% | number of plants denoted by + (low glyphosate resistance) [2]: 3 | number of plants denoted by ++ (medium glyphosate resistance) [2]: 10 | number of plants denoted by +++ (high glyphosate resistance) [2]: 1 | number of plants denoted by − (no glyphosate resistance) [2]: 10 | glyphosate resistance / survival of the rice transformed by the EPSPS, in words (2× glyphosate dosage): some of the transgenic rice seedlings transformed by R1 and R4 still survived | &++&+++ (percentage of plant having medium and high glyphosate resistance to the total number of plants observed) [3]: 4.2% | number of plants denoted by + (low glyphosate resistance) [3]: 9 | number of plants denoted by ++ (medium glyphosate resistance) [3]: 1 | number of plants denoted by +++ (high glyphosate resistance) [3]: 0 | number of plants denoted by − (no glyphosate resistance) [3]: 14 | glyphosate resistance / survival of the rice transformed by the EPSPS, in words (5× glyphosate dosage): some of the transgenic rice seedlings transformed by R1 and R4 still survived | &++&+++ (percentage of plant having medium and high glyphosate resistance to the total number of plants observed) [4]: 0.0% | number of plants denoted by + (low glyphosate resistance) [4]: 4 | number of plants denoted by ++ (medium glyphosate resistance) [4]: 0 | number of plants denoted by +++ (high glyphosate resistance) [4]: 0 | number of plants denoted by − (no glyphosate resistance) [4]: 20 | glyphosate resistance / survival of the rice transformed by the EPSPS, in words (20× glyphosate dosage): some of the transgenic rice seedlings transformed by R1 and R4 still survived

B2: R2: rice EPSPS mutant, SEQ ID NO: 32, merely containing the mutation P116(101)S; control (protein)
chain: B1 chain with P116S, P214L
%++&+++ (percentage of plant having medium and high glyphosate resistance to the total number of plants observed) [1]: 81.0% | number of plants denoted by + (low glyphosate resistance) [1]: 9 | number of plants denoted by ++ (medium glyphosate resistance) [1]: 10 | number of plants denoted by +++ (high glyphosate resistance) [1]: 37 | number of plants denoted by − (no glyphosate resistance) [1]: 2 | glyphosate resistance / survival of the rice transformed by the EPSPS, in words (1× glyphosate dosage): had relatively high resistance to glyphosate | %++&+++ (percentage of plant having medium and high glyphosate resistance to the total number of plants observed) [2]: 26.8% | number of plants denoted by + (low glyphosate resistance) [2]: 17 | number of plants denoted by ++ (medium glyphosate resistance) [2]: 18 | number of plants denoted by +++ (high glyphosate resistance) [2]: 14 | number of plants denoted by − (no glyphosate resistance) [2]: 9 | glyphosate resistance / survival of the rice transformed by the EPSPS, in words (2× glyphosate dosage): had relatively high resistance to glyphosate | &++&+++ (percentage of plant having medium and high glyphosate resistance to the total number of plants observed) [3]: 3.4% | number of plants denoted by + (low glyphosate resistance) [3]: 40 | number of plants denoted by ++ (medium glyphosate resistance) [3]: 2 | number of plants denoted by +++ (high glyphosate resistance) [3]: 0 | number of plants denoted by − (no glyphosate resistance) [3]: 16 | &++&+++ (percentage of plant having medium and high glyphosate resistance to the total number of plants observed) [4]: 0.0% | number of plants denoted by + (low glyphosate resistance) [4]: 1 | number of plants denoted by ++ (medium glyphosate resistance) [4]: 0 | number of plants denoted by +++ (high glyphosate resistance) [4]: 0 | number of plants denoted by − (no glyphosate resistance) [4]: 57

B3: R3: rice EPSPS mutant, SEQ ID NO: 34, mutations L214(195)P and P116(101)S (protein)
chain: B1 chain with P116S
%++&+++ (percentage of plant having medium and high glyphosate resistance to the total number of plants observed) [1]: 76.8% | number of plants denoted by + (low glyphosate resistance) [1]: 18 | number of plants denoted by ++ (medium glyphosate resistance) [1]: 39 | number of plants denoted by +++ (high glyphosate resistance) [1]: 24 | number of plants denoted by − (no glyphosate resistance) [1]: 1 | glyphosate resistance / survival of the rice transformed by the EPSPS, in words (1× glyphosate dosage): had relatively high resistance to glyphosate | %++&+++ (percentage of plant having medium and high glyphosate resistance to the total number of plants observed) [2]: 7.5% | number of plants denoted by + (low glyphosate resistance) [2]: 59 | number of plants denoted by ++ (medium glyphosate resistance) [2]: 12 | number of plants denoted by +++ (high glyphosate resistance) [2]: 10 | number of plants denoted by − (no glyphosate resistance) [2]: 1 | glyphosate resistance / survival of the rice transformed by the EPSPS, in words (2× glyphosate dosage): had relatively high resistance to glyphosate | &++&+++ (percentage of plant having medium and high glyphosate resistance to the total number of plants observed) [3]: 13.4% | number of plants denoted by + (low glyphosate resistance) [3]: 59 | number of plants denoted by ++ (medium glyphosate resistance) [3]: 11 | number of plants denoted by +++ (high glyphosate resistance) [3]: 0 | number of plants denoted by − (no glyphosate resistance) [3]: 12 | &++&+++ (percentage of plant having medium and high glyphosate resistance to the total number of plants observed) [4]: 7.3% | number of plants denoted by + (low glyphosate resistance) [4]: 28 | number of plants denoted by ++ (medium glyphosate resistance) [4]: 6 | number of plants denoted by +++ (high glyphosate resistance) [4]: 0 | number of plants denoted by − (no glyphosate resistance) [4]: 48

B4: R4: rice EPSPS mutant, SEQ ID NO: 36, mutation S267(247)G (protein)
chain: B1 chain with P214L, S267G
%++&+++ (percentage of plant having medium and high glyphosate resistance to the total number of plants observed) [1]: 66.7% | number of plants denoted by + (low glyphosate resistance) [1]: 46 | number of plants denoted by ++ (medium glyphosate resistance) [1]: 62 | number of plants denoted by +++ (high glyphosate resistance) [1]: 44 | number of plants denoted by − (no glyphosate resistance) [1]: 7 | glyphosate resistance / survival of the rice transformed by the EPSPS, in words (1× glyphosate dosage): obviously superior to that of the rice seedlings transformed by R0 | number of plants denoted by + (low glyphosate resistance) [2]: 136 | number of plants denoted by ++ (medium glyphosate resistance) [2]: 10 | number of plants denoted by +++ (high glyphosate resistance) [2]: 2 | number of plants denoted by − (no glyphosate resistance) [2]: 11 | glyphosate resistance / survival of the rice transformed by the EPSPS, in words (2× glyphosate dosage): some of the transgenic rice seedlings transformed by R1 and R4 still survived | &++&+++ (percentage of plant having medium and high glyphosate resistance to the total number of plants observed) [3]: 0.0% | number of plants denoted by + (low glyphosate resistance) [3]: 67 | number of plants denoted by ++ (medium glyphosate resistance) [3]: 0 | number of plants denoted by +++ (high glyphosate resistance) [3]: 0 | number of plants denoted by − (no glyphosate resistance) [3]: 92 | glyphosate resistance / survival of the rice transformed by the EPSPS, in words (5× glyphosate dosage): some of the transgenic rice seedlings transformed by R1 and R4 still survived | &++&+++ (percentage of plant having medium and high glyphosate resistance to the total number of plants observed) [4]: 0.0% | number of plants denoted by + (low glyphosate resistance) [4]: 8 | number of plants denoted by ++ (medium glyphosate resistance) [4]: 0 | number of plants denoted by +++ (high glyphosate resistance) [4]: 0 | number of plants denoted by − (no glyphosate resistance) [4]: 151 | glyphosate resistance / survival of the rice transformed by the EPSPS, in words (20× glyphosate dosage): some of the transgenic rice seedlings transformed by R1 and R4 still survived

B5: R5: rice EPSPS mutant, SEQ ID NO: 38, mutations S267(247)G and P116(101)S (protein)
chain: B1 chain with P116S, P214L, S267G
%++&+++ (percentage of plant having medium and high glyphosate resistance to the total number of plants observed) [1]: 84.2% | number of plants denoted by + (low glyphosate resistance) [1]: 0 | number of plants denoted by ++ (medium glyphosate resistance) [1]: 6 | number of plants denoted by +++ (high glyphosate resistance) [1]: 10 | number of plants denoted by − (no glyphosate resistance) [1]: 3 | glyphosate resistance / survival of the rice transformed by the EPSPS, in words (1× glyphosate dosage): had relatively high resistance to glyphosate | %++&+++ (percentage of plant having medium and high glyphosate resistance to the total number of plants observed) [2]: 63.3% | number of plants denoted by + (low glyphosate resistance) [2]: 3 | number of plants denoted by ++ (medium glyphosate resistance) [2]: 6 | number of plants denoted by +++ (high glyphosate resistance) [2]: 4 | number of plants denoted by − (no glyphosate resistance) [2]: 6 | glyphosate resistance / survival of the rice transformed by the EPSPS, in words (2× glyphosate dosage): had relatively high resistance to glyphosate | &++&+++ (percentage of plant having medium and high glyphosate resistance to the total number of plants observed) [3]: 42.1% | number of plants denoted by + (low glyphosate resistance) [3]: 3 | number of plants denoted by ++ (medium glyphosate resistance) [3]: 8 | number of plants denoted by +++ (high glyphosate resistance) [3]: 0 | number of plants denoted by − (no glyphosate resistance) [3]: 8 | &++&+++ (percentage of plant having medium and high glyphosate resistance to the total number of plants observed) [4]: 0.0% | number of plants denoted by + (low glyphosate resistance) [4]: 8 | number of plants denoted by ++ (medium glyphosate resistance) [4]: 0 | number of plants denoted by +++ (high glyphosate resistance) [4]: 0 | number of plants denoted by − (no glyphosate resistance) [4]: 11
